# Laboratory results from PMC8555655.
# Target: PlyCB R66E mutant (streptococcal bacteriophage (C1)) (UniProt Q7Y3F3)
# Test: SEC
substance,measurement,value
PlyCB R66E mutant (from UniProt Q7Y3F3 1-72) (natural protein),stoichiometry N,8
